Test results from patent publication US20240383988A1 (ERASCA, published 2024).

B1: IgG ER-3a (antibody, V domains shown)
VH: EVQLVESGGGLVQPGGSLRLSCAASGFDLYSYSMHWVRQAPGKGLEWVASVSPSSGSTYYADSVKGRFTISADTSKNTAYLQMNSLRAEDTAVYYCARHWHVYPSYYWGGFDYWGQGTLVTVSS
VL: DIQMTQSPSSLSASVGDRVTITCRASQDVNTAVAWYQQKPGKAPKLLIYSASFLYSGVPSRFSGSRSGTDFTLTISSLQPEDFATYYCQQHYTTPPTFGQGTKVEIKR
notes: IgG; also called Ab ER-3a
B2: IgG ER-2a (antibody, V domains shown)
VH: EVQLVESGGGLVQPGGSLRLSCAASGFDVYYAAMHWVRQAPGKGLEWVASISPYYGYTSYADSVKGRFTISADTSKNTAYLQMNSLRAEDTAVYYCARYYHFSWHWSSFGGSYYPGMDYWGQGTLVTVSS
VL: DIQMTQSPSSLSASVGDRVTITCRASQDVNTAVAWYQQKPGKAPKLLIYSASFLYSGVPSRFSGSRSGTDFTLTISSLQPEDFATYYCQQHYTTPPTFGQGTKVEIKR
notes: IgG; also called Ab ER-2a

Legend:
[1] = target: EGFR fragment D1-D2 (Homo sapiens (Human), UniProt P00533 25-334, limits assumed); assay: flow cytometry on transfected HEK293T cells, saturating IgG, signal normalized
[2] = target: T1, human EGFR (human, UniProt P00533 25-645); assay: SPR with purified IgG on EGFR; column head 10^5 (s-1M-1)
T1 construct: Recombinant EGFR as used in SPR, ELISA and BLI; The phage selections used the EGFR ectodomain; also called immobilized EGFR; EGFR ectodomain (ECD)

[3] = target: T1, human EGFR; assay: SPR with purified IgG on EGFR; column head 10^-4 (s-1)
[4] = target: T2, EGFRvIII (UniProt P00533 25-1210); assay: flow cytometry on transfected cells
T2 construct: whole, on cells; The deletion must be applied to it

[5] = target: T3, EGFR-D28 (Homo sapiens (Human), UniProt P00533 25-1210); assay: flow cytometry on transfected cells
T3 construct: The deletion Cys240-Cys267 must be applied to the entry

[6] = target: T1, human EGFR; assay: SPR, IgG; optimized variant IgG ER-2a
[7] = target: EGFR fragment D3-D4 (Homo sapiens (Human), UniProt P00533 334-645, limits assumed); assay: flow cytometry on transfected HEK293T cells

| Binder | binding result [1] | kon [2] [M⁻¹ s⁻¹] | koff [3] [s⁻¹] | binding result [4] | binding result [5] | Kd [6] [pM] | binding result [7] |
| --- | --- | --- | --- | --- | --- | --- | --- |
| B1 | no binding | – | – | – | – | – | – |
| B2 | – | 220000 | 6.1e-05 | no binding (tested: saturating IgG concentrations) | no binding (tested: saturating IgG concentrations) | 280 | no binding (tested: saturating IgG concentrations) |
